Test results reported in patent US20140274782A1, “AFFINITY REAGENTS AND METHODS FOR DETECTION, PURIFICATION, AND PROTEOMIC ANALYSIS OF METHYLATED PROTEINS” (The Board of Trustees of the Leland Stanford Junior …, priority 2013, published 2014).

T1: G9a and GLP (Homo sapiens, UniProt Q96KQ7+Q9H9B1)
T1 sequence (Q96KQ7 2-1210 limits assumed): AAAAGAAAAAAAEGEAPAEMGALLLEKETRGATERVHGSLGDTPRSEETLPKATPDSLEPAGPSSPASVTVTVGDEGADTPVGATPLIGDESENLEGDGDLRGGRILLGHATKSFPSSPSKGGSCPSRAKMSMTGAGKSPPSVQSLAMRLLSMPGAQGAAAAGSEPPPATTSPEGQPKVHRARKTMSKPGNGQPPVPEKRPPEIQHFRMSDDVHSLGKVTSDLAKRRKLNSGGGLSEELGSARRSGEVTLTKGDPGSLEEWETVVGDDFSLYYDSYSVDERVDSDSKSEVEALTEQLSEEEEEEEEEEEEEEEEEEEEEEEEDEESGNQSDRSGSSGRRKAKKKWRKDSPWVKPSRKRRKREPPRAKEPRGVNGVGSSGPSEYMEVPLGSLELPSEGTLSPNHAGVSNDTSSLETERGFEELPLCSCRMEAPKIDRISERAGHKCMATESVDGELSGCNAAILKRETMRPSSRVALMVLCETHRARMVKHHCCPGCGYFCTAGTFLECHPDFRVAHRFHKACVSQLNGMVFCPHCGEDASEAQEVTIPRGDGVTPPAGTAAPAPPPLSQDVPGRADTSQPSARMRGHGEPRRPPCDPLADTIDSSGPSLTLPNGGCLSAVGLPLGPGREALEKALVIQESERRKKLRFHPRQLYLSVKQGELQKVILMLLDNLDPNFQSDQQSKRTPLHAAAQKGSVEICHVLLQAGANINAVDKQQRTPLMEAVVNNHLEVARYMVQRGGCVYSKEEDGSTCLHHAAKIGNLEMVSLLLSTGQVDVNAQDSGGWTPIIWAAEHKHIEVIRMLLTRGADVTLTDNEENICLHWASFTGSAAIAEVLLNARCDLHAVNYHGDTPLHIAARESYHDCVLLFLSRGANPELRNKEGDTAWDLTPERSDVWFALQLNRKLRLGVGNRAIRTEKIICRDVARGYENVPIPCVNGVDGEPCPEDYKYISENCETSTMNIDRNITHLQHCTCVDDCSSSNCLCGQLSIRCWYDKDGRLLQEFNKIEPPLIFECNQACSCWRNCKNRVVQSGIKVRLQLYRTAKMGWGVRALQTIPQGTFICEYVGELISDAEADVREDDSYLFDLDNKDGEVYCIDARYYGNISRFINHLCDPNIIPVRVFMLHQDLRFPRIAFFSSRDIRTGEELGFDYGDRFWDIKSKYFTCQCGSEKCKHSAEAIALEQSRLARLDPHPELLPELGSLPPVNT
T1 sequence (Q9H9B1 2-1298 limits assumed): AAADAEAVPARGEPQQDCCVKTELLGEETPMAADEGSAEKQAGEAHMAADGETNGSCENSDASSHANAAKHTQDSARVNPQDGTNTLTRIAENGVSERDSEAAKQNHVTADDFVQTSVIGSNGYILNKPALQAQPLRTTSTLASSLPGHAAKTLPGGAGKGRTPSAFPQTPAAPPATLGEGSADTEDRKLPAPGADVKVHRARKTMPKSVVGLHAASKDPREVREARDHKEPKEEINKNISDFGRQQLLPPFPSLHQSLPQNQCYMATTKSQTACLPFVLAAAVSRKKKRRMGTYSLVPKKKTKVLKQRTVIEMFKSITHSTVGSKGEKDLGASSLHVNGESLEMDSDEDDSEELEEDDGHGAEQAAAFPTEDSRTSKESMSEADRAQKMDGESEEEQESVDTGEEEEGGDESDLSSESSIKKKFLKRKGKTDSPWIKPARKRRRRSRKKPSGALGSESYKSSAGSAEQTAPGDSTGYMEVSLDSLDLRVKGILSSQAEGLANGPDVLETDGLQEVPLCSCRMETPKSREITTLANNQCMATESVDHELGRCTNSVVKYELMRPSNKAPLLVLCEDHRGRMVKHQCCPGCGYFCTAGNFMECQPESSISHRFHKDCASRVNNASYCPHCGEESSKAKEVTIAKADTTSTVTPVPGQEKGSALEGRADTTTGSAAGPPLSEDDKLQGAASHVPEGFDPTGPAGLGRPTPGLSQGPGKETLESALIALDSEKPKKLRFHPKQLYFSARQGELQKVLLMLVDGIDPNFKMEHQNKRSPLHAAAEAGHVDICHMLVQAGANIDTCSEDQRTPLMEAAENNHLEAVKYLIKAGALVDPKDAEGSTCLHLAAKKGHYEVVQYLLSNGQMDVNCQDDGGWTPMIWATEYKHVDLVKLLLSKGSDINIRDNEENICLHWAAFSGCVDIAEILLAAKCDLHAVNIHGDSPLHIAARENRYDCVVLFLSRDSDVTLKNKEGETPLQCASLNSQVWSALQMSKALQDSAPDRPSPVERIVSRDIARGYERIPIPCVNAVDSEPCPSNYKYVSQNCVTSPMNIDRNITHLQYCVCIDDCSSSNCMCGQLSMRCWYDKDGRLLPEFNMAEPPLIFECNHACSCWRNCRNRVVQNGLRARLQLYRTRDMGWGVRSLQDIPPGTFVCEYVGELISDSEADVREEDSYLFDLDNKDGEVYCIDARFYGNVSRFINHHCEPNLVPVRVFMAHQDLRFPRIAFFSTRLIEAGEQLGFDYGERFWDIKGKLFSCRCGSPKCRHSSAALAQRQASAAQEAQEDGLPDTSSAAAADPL


Legend:
3×MBT domain of L3MBTL1 = experiment: Triple SILAC pull-down, 3xMBT/3xMBTD355N ratio (cytoplasmic, nuclear and chromatin fractions of 293T cells); type: binding, human; conditions: SILAC ratio, pull-down 3xMBT vs 3xMBTD355N; for 3xMBT/D355N UNC Heavy: experiment with UNC0638 in heavy SILAC media; for 3xMBT/D355N UNC Light: experiment with UNC0638 in light SILAC media;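 for all read-outs here: proteins quantified with MaxQuant, requiring at least two unique peptides and quantification in both label directions, normalized to the mean of proteins from a digested loading control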
G9a and GLP = biological target: T1, G9a and GLP; experiment: Triple SILAC pull-down after UNC0638 treatment of 293T cells, DMSO/UNC0638 ratio of protein captured by 3×MBT; type: cell-based; design: cells were treated for 24 hours with UNC0638 at 2.5 μM or DMSO vehicle control; endogenous in cells; host or cells: HEK 293T; conditions: for Relative to UNC0638 UNC Heavy / Relative to UNC0638 UNC Light: SILAC ratio DMSO/UNC0638 of protein pulled down with 3xMBT; for Relative to UNC0638 UNC Heavy: UNC0638 in heavy SILAC media; for Relative to UNC0638 UNC Light: UNC0638 in light SILAC media; for Relative to UNC0638 Average: average of UNC Light and UNC Heavy experiments;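 for all read-outs here: mass spectrometry (Q-Exactive) SILAC quantitation, DMSO/UNC0638 ratio computed after subtracting 3×MBTD355N mutant pull-down background, only proteins with at least twofold 3×MBT over mutant signal considered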

Row | Molecule | Relative to UNC0638 UNC Heavy (G9a and GLP) [log base 2] | Relative to UNC0638 UNC Light (G9a and GLP) [log base 2] | Relative to UNC0638 Average (G9a and GLP) [log base 2] | 3xMBT/D355N UNC Heavy (3×MBT domain of L3MBTL1) [log base 2] | 3xMBT/D355N UNC Light (3×MBT domain of L3MBTL1) [log base 2]
1 | CACYBP (protein, UniProt Q9HB71 2-228, looked up) Calcyclin-binding protein: ASEELQKDLEEVKVLLEKATRKRVRDALTAEKSKIETEIKNKMQQKSQKKAELLDNEKPAAVVAPITTGYTVKISNYGWDQSDKFVKIYITLTGVHQVPTENVQVHFTERSFDLLVKNLNGKSYSMIVNNLLKPISVEGSSKKVKTDTVLILCRKKVENTRWDYLTQVEKECKEKEKPSYDTETDPSEGLMNVLKKIYEDGDDDMKRTINKAWVESREKQAKGDTEF | 0.29 | 0.20 | 0.25 | 1.46 | 1.48
2 | U2SURP (protein, UniProt O15042 2-1029, looked up) U2 snRNP-associated SURP …: ADKTPGGSQKASSKTRSSDVHSSGSSDAHMDASGPSDSDMPSRTRPKSPRKHNYRNESARESLCDSPHQNLSRPLLENKLKAFSIGKMSTAKRTLSKKEQEELKKKEDEKAAAEIYEEFLAAFEGSDGNKVKTFVRGGVVNAAKEEHETDEKRGKIYKPSSRFADQKNPPNQSSNERPPSLLVIETKKPPLKKGEKEKKKSNLELFKEELKQIQEERDERHKTKGRLSRFEPPQSDSDGQRRSMDAPSRRNRSSGVLDDYAPGSHDVGDPSTTNLYLGNINPQMNEEMLCQEFGRFGPLASVKIMWPRTDEERARERNCGFVAFMNRRDAERALKNLNGKMIMSFEMKLGWGKAVPIPPHPIYIPPSMMEHTLPPPPSGLPFNAQPRERLKNPNAPMLPPPKNKEDFEKTLSQAIVKVVIPTERNLLALIHRMIEFVVREGPMFEAMIMNREINNPMFRFLFENQTPAHVYYRWKLYSILQGDSPTKWRTEDFRMFKNGSFWRPPPLNPYLHGMSEEQETEAFVEEPSKKGALKEEQRDKLEEILRGLTPRKNDIGDAMVFCLNNAEAAEEIVDCITESLSILKTPLPKKIARLYLVSDVLYNSSAKVANASYYRKFFETKLCQIFSDLNATYRTIQGHLQSENFKQRVMTCFRAWEDWAIYPEPFLIKLQNIFLGLVNIIEEKETEDVPDDLDGAPIEEELDGAPLEDVDGIPIDATPIDDLDGVPIKSLDDDLDGVPLDATEDSKKNEPIFKVAPSKWEAVDESELEAQAVTTSKWELFDQHEESEEEENQNQEEESEDEEDTQSSKSEEHHLYSNPIKEEMTESKFSKYSEMSEEKRAKLREIELKVMKFQDELESGKRPKKPGQSFQEQVEHYRDKLLQREKEKELERERERDKKDKEKLESRSKDKKEKDECTPTRKERKRRHSTSPSPSRSSSGRRVKSPSPKSERSERSERSHKESSRSRSSHKDSPRDVSKKAKRSPSGSRTPKRSRRSRSRSPKKSGKKSRSQSRSPHRSHKKSKKNKH | 0.23 | 0.27 | 0.25 | 3.19 | 2.58

Further lines, with some results ahead:

Row | Relative to UNC0638 UNC Heavy (G9a and GLP) [log base 2] | Relative to UNC0638 UNC Light (G9a and GLP) [log base 2] | Relative to UNC0638 Average (G9a and GLP) [log base 2] | Molecule | 3xMBT/D355N UNC Heavy (3×MBT domain of L3MBTL1) [log base 2] | 3xMBT/D355N UNC Light (3×MBT domain of L3MBTL1) [log base 2]
3 | 0.27 | 0.23 | 0.25 | PRDX6 (protein, UniProt P30041 2-224, looked up) Peroxiredoxin-6: PGGLLLGDVAPNFEANTTVGRIRFHDFLGDSWGILFSHPRDFTPVCTTELGRAAKLAPEFAKRNVKLIALSIDSVEDHLAWSKDINAYNCEEPTEKLPFPIIDDRNRELAILLGMLDPAEKDEKGMPVTARVVFVFGPDKKLKLSILYPATTGRNFDEILRVVISLQLTAEKRVATPVDWKDGDSVMVLPTIPEEEAKKLFPKGVFTKELPSGKKYLRYTPQP | 2.01 | 2.00
4 | 0.60 | −0.11 | 0.24 | SEC24A (protein, UniProt O95486 1-1093, looked up) Protein transport protein …: MSQPGIPASGGAPASLQAQNGAALASGSPYTNGPVQNALLSSQESVSQGYNFQLPGSYPHPIPAKTLNPVSGQSNYGGSQGSGQTLNRPPVASNPVTPSLHSGPAPRMPLPASQNPATTPMPSSSFLPEANLPPPLNWQYNYPSTASQTNHCPRASSQPTVSGNTSLTTNHQYVSSGYPSLQNSFIKSGPSVPPLVNPPLPTTFQPGAPHGPPPAGGPPPVRALTPLTSSYRDVPQPLFNSAVNQEGITSNTNNGSMVVHSSYDEIEGGGLLATPQLTNKNPKMSRSVGYSYPSLPPGYQNTTPPGATGVPPSSLNYPSGPQAFTQTPLGANHLTTSMSGLSLQPEGLRVVNLLQERNMLPSTPLKPPVPNLHEDIQKLNCNPELFRCTLTSIPQTQALLNKAKLPLGLLLHPFKDLVQLPVVTSSTIVRCRSCRTYINPFVSFLDQRRWKCNLCYRVNDVPEEFLYNPLTRVYGEPHRRPEVQNATIEFMAPSEYMLRPPQPPVYLFVFDVSHNAVETGYLNSVCQSLLDNLDLLPGNTRTKIGFITFDSTIHFYGLQESLSQPQMLIVSDIEDVFIPMPENLLVNLNESKELVQDLLKTLPQMFTKTLETQSALGPALQAAFKLMSPTGGRMSVFQTQLPTLGVGALKPREEPNHRSSAKDIHMTPSTDFYKKLALDCSGQQVAVDLFLLSGQYSDLASLGCISRYSAGSVYYYPSYHHQHNPVQVQKLQKELQRYLTRKIGFEAVMRIRCTKGLSIHTFHGNFFVRSTDLLSLPNVNPDAGYAVQMSVEESLTDTQLVSFQSALLYTSSKGERRIRVHTLCLPVVSTLNDVFLGADVQAISGLLANMAVDRSMTASLSDARDALVNAVIDSLSAYRSSVLSNQQPGLMVPFSLRLFPLFVLALLKQKSFQTGTNARLDERIFAMCQVKNQPLVYLMLTTHPSLYRVDNLSDEGALNISDRTIPQPPILQLSVEKLSRDGAFLMDAGSVLMLWVGKNCTQNFLSQVLGVQNYASIPQPMTDLPELDTPESARIIAFISWLREQRPFFPILYVIRDESPMKANFLQNMIEDRTESALSYYEFLLHIQQQVNK | 1.94 | 2.29
